The values that follow come from the Immune Epitope Database (IEDB).

pKd: −log10 of the molar value. Bounds are passed on as bounds.

Targets include HLA-A*11:01; HLA-A*03:01; HLA-A*31:01; HLA-A*68:01; HLA-A*33:01.
Holding throughout (experiment): IEDB peptide-MHC binding, purified MHC/competitive/radioactivity; filed as Kd, often an IC50 or EC50 that approximates it; ≥ and ≤ were set here for values at or beyond the usual limits of such assays
The mark [1] stands for this setting: source organism: Vaccinia virus WR.
Setting [2] is: source organism: SARS coronavirus Tor2.
Where [3] appears, read: source organism: Mammarenavirus guanaritoense.
Where [4] appears, read: source organism: Mammarenavirus machupoense.

Take LSARNKLFK: the pKd in the test with HLA-A*11:01 (setting [1]) is 9.27; in the test with HLA-A*03:01 (setting [1]) it was 8.66; in the test with HLA-A*31:01 (setting [1]) it was 6.77; with HLA-A*68:01 (setting [1]), 7.83; with HLA-A*33:01 (setting [1]), 4.79.

With ALNHTKKWK, the negative logarithm of the Kd (pKd) was 5.25 in the test with HLA-A*11:01 (setting [2]); 6.11 with HLA-A*03:01 (setting [2]); 6.28 with HLA-A*31:01 (setting [2]); not above 4.11 with HLA-A*68:01 (setting [2]); not above 4.11 with HLA-A*33:01 (setting [2]).

Take PIFSDLLKY: the pKd with HLA-A*11:01 (setting [1]) is 5.18; with HLA-A*03:01 (setting [1]), not above 4.53; with HLA-A*31:01 (setting [1]), not above 4.24; with HLA-A*68:01 (setting [1]), not above 4.43; with HLA-A*33:01 (setting [1]), not above 4.11.

Turning to DFESVTNSVY, the negative logarithm of the Kd (pKd) is not above 4.60 in the test with HLA-A*11:01 (setting [1]); not above 4.48 with HLA-A*03:01 (setting [1]); 4.81 with HLA-A*31:01 (setting [1]); 4.93 with HLA-A*68:01 (setting [1]); 4.83 with HLA-A*33:01 (setting [1]).

In the case of SAVVDNKLK, the negative-log Kd (pKd) with HLA-A*11:01 (setting [1]) was 6.29; with HLA-A*03:01 (setting [1]), not above 4.63; with HLA-A*31:01 (setting [1]) it was not above 4.23; with HLA-A*68:01 (setting [1]) it was 6.24; with HLA-A*33:01 (setting [1]), not above 4.11.

VVKLTAVCMK: the negative logarithm of the Kd (pKd) is 6.92 with HLA-A*11:01 (setting [1]); 6.94 with HLA-A*03:01 (setting [1]); 6.68 in the test with HLA-A*31:01 (setting [1]); 6.14 in the test with HLA-A*68:01 (setting [1]); 5.57 in the test with HLA-A*33:01 (setting [1]).

Regarding LCCSLDHSK, the pKd with HLA-A*11:01 (setting [3]) is not above 4.42; with HLA-A*03:01 (setting [3]) it was not above 4.47; with HLA-A*31:01 (setting [3]), 6.09; with HLA-A*68:01 (setting [3]) it was not above 4.49; in the test with HLA-A*33:01 (setting [3]) it was 5.13.

Consider LLFVVEVVDK, for which the pKd in the test with HLA-A*11:01 (setting [2]) was 5.52; in the test with HLA-A*03:01 (setting [2]), 5.36; in the test with HLA-A*31:01 (setting [2]), 5.18; in the test with HLA-A*68:01 (setting [2]), 5.88; in the test with HLA-A*33:01 (setting [2]), 5.22.

Turning to ALCTFLLNK, the pKd with HLA-A*11:01 (setting [2]) is 8.56; with HLA-A*03:01 (setting [2]), 9.11; with HLA-A*31:01 (setting [2]), 6.45; with HLA-A*68:01 (setting [2]), 5.98; with HLA-A*33:01 (setting [2]), 5.18.

Take AFDISVNASK: the pKd with HLA-A*11:01 (setting [1]) is 5.91; with HLA-A*03:01 (setting [1]), 6.23; with HLA-A*31:01 (setting [1]) it was 5.78; with HLA-A*68:01 (setting [1]) it was 5.98; with HLA-A*33:01 (setting [1]) it was not above 4.49.

Turning to NSFIISTLNK, the pKd is 9.35 with HLA-A*11:01 (setting [1]); 6.38 in the test with HLA-A*03:01 (setting [1]); 6.19 with HLA-A*31:01 (setting [1]); 7.72 with HLA-A*68:01 (setting [1]); 5.35 in the test with HLA-A*33:01 (setting [1]).

As for YTVEFDRDK, the pKd was 4.72 with HLA-A*11:01 (setting [1]); not above 4.11 in the test with HLA-A*03:01 (setting [1]); not above 4.48 with HLA-A*31:01 (setting [1]); 8.90 in the test with HLA-A*68:01 (setting [1]); not above 4.35 with HLA-A*33:01 (setting [1]).

As for NAISSRVDRY, the pKd with HLA-A*11:01 (setting [1]) was 4.74; with HLA-A*03:01 (setting [1]) it was not above 4.37; with HLA-A*31:01 (setting [1]), 4.96; in the test with HLA-A*68:01 (setting [1]), 4.97; with HLA-A*33:01 (setting [1]) it was not above 4.15.

For LMNVITLVYK, the negative-log Kd (pKd) is 7.63 with HLA-A*11:01 (setting [2]); 7.97 with HLA-A*03:01 (setting [2]); 6.13 in the test with HLA-A*31:01 (setting [2]); 6.13 with HLA-A*68:01 (setting [2]); 5.25 with HLA-A*33:01 (setting [2]).

Take NFGTIILNK: the pKd with HLA-A*11:01 (setting [1]) is 5.96; with HLA-A*03:01 (setting [1]) it was 5.87; with HLA-A*31:01 (setting [1]), 5.90; with HLA-A*68:01 (setting [1]), 6.29; with HLA-A*33:01 (setting [1]), 5.81.

Turning to GLVASIKNFK, the negative-log Kd (pKd) was 5.88 with HLA-A*11:01 (setting [2]); 6.20 with HLA-A*03:01 (setting [2]); 5.12 with HLA-A*31:01 (setting [2]); 6.29 with HLA-A*68:01 (setting [2]); not above 4.69 in the test with HLA-A*33:01 (setting [2]).

For TMCTEETKR, the pKd with HLA-A*11:01 (setting [1]) was not above 4.11; with HLA-A*03:01 (setting [1]), not above 4.11; with HLA-A*31:01 (setting [1]) it was 5.53; with HLA-A*68:01 (setting [1]), 6.92; in the test with HLA-A*33:01 (setting [1]), 4.91.

As for EWIEFTNFK, the pKd with HLA-A*11:01 (setting [4]) is 5.48; in the test with HLA-A*03:01 (setting [4]) it was 5.02; in the test with HLA-A*31:01 (setting [4]), 4.81; with HLA-A*68:01 (setting [4]) it was 8.34; with HLA-A*33:01 (setting [4]), 7.18.

In the case of SSFIMRNFLR, the pKd in the test with HLA-A*11:01 (setting [1]) is 8.05; with HLA-A*03:01 (setting [1]) it was 5.68; with HLA-A*31:01 (setting [1]), 8.89; with HLA-A*68:01 (setting [1]) it was 7.87; in the test with HLA-A*33:01 (setting [1]) it was 6.06.

Regarding IAQSKGLYR, the pKd with HLA-A*11:01 (setting [2]) is 6.65; with HLA-A*03:01 (setting [2]), 5.41; with HLA-A*31:01 (setting [2]) it was 7.01; in the test with HLA-A*68:01 (setting [2]), 6.98; with HLA-A*33:01 (setting [2]), 6.82.

For CCNWLDRCRH, the pKd with HLA-A*11:01 (setting [3]) was not above 4.16; with HLA-A*03:01 (setting [3]), not above 4.15; with HLA-A*31:01 (setting [3]), 5.87; in the test with HLA-A*68:01 (setting [3]) it was not above 4.15; in the test with HLA-A*33:01 (setting [3]), 4.80.

FLDKSIHLTK: the pKd in the test with HLA-A*11:01 (setting [1]) is 6.75; with HLA-A*03:01 (setting [1]), 6.93; in the test with HLA-A*31:01 (setting [1]), 6.98; with HLA-A*68:01 (setting [1]), 6.63; in the test with HLA-A*33:01 (setting [1]), 6.28.

For the sequence VIVVPVIDR, the negative-log Kd (pKd) is 6.17 in the test with HLA-A*11:01 (setting [1]); not above 4.11 in the test with HLA-A*03:01 (setting [1]); 5.00 with HLA-A*31:01 (setting [1]); 6.55 in the test with HLA-A*68:01 (setting [1]); not above 4.11 in the test with HLA-A*33:01 (setting [1]).
